Source: IntAct's records for PubMed 21258410

B1: Mothers against decapentaplegic homolog 7 (Homo sapiens), O15105 (parent)
chain: MFRTKRSALVRRLWRSRAPGGEDEEEGAGGGGGGGELRGEGATDSRAHGAGGGGPGRAGCCLGKAVRGAKGHHHPHPPAAGAGAAGGAEADLKALTHSVLKKLKERQLELLLQAVESRGGTRTACLLLPGRLDCRLGPGAPAGAQPAQPPSSYSLPLLLCKVFRWPDLRHSSEVKRLCCCESYGKINPELVCCNPHHLSRLCELESPPPPYSRYPMDFLKPTADCPDAVPSSAETGGTNYLAPGGLSDSQLLLEPGDRSHWCVVAYWEEKTRVGRLYCVQEPSLDIFYDLPQGNGFCLGQLNSDNKSQLVQKVRSKIGCGIQLTREVDGVWVYNRSSYPIFIKSATLDNPDSRTLLVHKVFPGFSIKAFDYEKAYSLQRPNDHEFMQQPWTGFTVQISFVKGWGQCYTRQFISSCPCWLEVIFNSR

Variants of: B1
Conditions: with wwp2_human WWP2, O00308
wwp2_human WWP2, O00308, sequence (O00308 whole entry): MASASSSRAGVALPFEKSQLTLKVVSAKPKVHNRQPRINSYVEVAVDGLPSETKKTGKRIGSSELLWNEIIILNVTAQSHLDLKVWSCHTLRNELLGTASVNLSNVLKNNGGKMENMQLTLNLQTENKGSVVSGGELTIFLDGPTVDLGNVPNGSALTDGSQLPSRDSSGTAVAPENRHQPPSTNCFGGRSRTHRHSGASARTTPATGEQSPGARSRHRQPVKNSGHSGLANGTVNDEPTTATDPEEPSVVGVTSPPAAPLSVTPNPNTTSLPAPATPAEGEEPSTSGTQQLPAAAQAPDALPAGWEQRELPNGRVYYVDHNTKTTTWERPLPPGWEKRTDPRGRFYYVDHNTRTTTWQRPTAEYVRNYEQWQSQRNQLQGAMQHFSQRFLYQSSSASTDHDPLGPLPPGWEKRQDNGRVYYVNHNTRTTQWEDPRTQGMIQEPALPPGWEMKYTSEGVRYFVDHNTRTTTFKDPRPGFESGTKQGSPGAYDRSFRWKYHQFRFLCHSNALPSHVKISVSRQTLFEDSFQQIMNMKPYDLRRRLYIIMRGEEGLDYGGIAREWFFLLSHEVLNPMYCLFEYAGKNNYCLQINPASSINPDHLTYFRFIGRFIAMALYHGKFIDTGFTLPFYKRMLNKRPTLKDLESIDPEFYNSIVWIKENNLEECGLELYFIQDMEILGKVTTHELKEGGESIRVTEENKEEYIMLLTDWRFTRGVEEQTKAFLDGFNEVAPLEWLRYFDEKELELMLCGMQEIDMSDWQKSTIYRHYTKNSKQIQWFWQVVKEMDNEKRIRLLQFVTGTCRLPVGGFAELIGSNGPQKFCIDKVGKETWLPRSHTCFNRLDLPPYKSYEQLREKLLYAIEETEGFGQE

| Variant | effect of a mutation on the interaction |
| --- | --- |
| MFRTKRSALVRRLWRSRAPGGEDEEEGAGGGGGGGELRGEGATDSRAHGAGGGGPGRAGCCLGKAVRGAKGHHHPHPPAAGAGAAGGAEADLKALTHSVLKKLKERQLELLLQAVESRGGTRTACLLLPGRLDCRLGPGAPAGAQPAQPPSSYSLPLLLCKVFRWPDLRHSSEVKRLCCCESYGKINPELVCCNPHHLSRLCELESPPPGSSRYPMDFLKPTADCPDAVPSSAETGGTNYLAPGGLSDSQLLLEPGDRSHWCVVAYWEEKTRVGRLYCVQEPSLDIFYDLPQGNGFCLGQLNSDNKSQLVQKVRSKIGCGIQLTREVDGVWVYNRSSYPIFIKSATLDNPDSRTLLVHKVFPGFSIKAFDYEKAYSLQRPNDHEFMQQPWTGFTVQISFVKGWGQCYTRQFISSCPCWLEVIFNSR [P210G;Y211S] | disrupting interaction |
